Target: galactose-deficient IgA1 (Gd-IgA1), enzymatically generated (UniProt P01876)
Experiment: dot blot, anti-His detection

Sequence of UniProt P01876 (P01876 other isoform, or with tags, fused parts or gaps): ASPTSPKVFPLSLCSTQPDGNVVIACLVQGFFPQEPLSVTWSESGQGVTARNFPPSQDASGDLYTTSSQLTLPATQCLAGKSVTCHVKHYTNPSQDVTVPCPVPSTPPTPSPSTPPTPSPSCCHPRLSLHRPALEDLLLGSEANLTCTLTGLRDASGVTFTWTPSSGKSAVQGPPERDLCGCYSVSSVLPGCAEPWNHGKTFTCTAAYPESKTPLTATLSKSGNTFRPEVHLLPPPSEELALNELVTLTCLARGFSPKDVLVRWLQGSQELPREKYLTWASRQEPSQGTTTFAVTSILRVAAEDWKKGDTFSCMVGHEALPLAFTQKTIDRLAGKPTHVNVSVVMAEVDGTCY

- amount of Gd-IgA1 detected in dot blot: > 1 µg
Substance: RussiaSea-001 (Crenomytilus grayanus lectin/CGL), His-tagged (artificial RussiaSea-001) (from UniProt H2FH31 1-150)

From patent US20210123927A1
